Here are results for 7 molecules from patent US20200317768A1 (published 2020).

Sequences and labels used below:
B1: M103205H795-MY308/M103202L889-SK1 (antibody, human IgG1, kappa)
heavy: QVTLKESGPVLVKPTETLTLTCTVSGIDLSHDDISWVRQAPGKGLEWVGIISYAGSTYYASWAKGRLTISKDTSKNQVVLTMTNMDPVDTATYYCARGVPAYSHGGDLWGQGTLVTVSSASTKGPSVFPLAPSSKSTSGGTAALGCLVKDYFPEPVTVSWNSGALTSGVHTFPAVLQSSGLYSLSSVVTVPSSSLGTQTYICNVNHKPSNTKVDKKVEPKSCDKTHTCPPCPAPELLTGPSVFLFPPKPKDTLMISRTPEVTCVVVDVSEEDPEVKFNWYVDGVEVHNAKTKPREEQYNSTYRVVSVLTVLHQDWLNGKEYKCKVSNKALPKPIEKTISKAKGQPREPQVYTLPPSREEMTKNQVSLTCLVKGFYPSDIAVEWESNGQPENNYKTTPPVLDSDGSFFLYSKLTVDKSRWQQGNVFSCSVMHEALHNHYTQKSLSLSP
light: DIVMTQSPATLSLSPGERATLSCTSSQSVYHANWLSWFQQKPGQPPKLLIYWASTLAYGVPSRFSGSGSGTDFTLTISSLQPEDAATYYCAGGYGGGRYAFGQGTKVEIKRTVAAPSVFIFPPSDEQLKSGTASVVCLLNNFYPREAKVQWKVDNALQSGNSQESVTEQDSKDSTYSLSSTLTLSKADYEKHKVYACEVTHQGLSSPVTKSFNRGEC
B2: M103205H795-MY310/M103202L889-SK1 (antibody, human IgG1, kappa)
heavy: QVTLKESGPVLVKPTETLTLTCTVSGIDLSHDDISWVRQAPGKGLEWVGIISYAGSTYYASWAKGRLTISKDTSKNQVVLTMTNMDPVDTATYYCARGVPAYSHGGDLWGQGTLVTVSSASTKGPSVFPLAPSSKSTSGGTAALGCLVKDYFPEPVTVSWNSGALTSGVHTFPAVLQSSGLYSLSSVVTVPSSSLGTQTYICNVNHKPSNTKVDKKVEPKSCDKTHTCPPCPAPELLTGPSVFLFPPKPKDTLMISRTPEVTCVVVDVSEEDPEVKFNWYVDGVEVHNAKTKPREEQYNSTYRVVSVLTVLHQDWLNGKEYKCKVSNTALPKPIEKTISKAKGQPREPQVYTLPPSREEMTKNQVSLTCLVKGFYPSDIAVEWESNGQPENNYKTTPPVLDSDGSFFLYSKLTVDKSRWQQGNVFSCSVMHEALHNHYTQKSLSLSP
light: DIVMTQSPATLSLSPGERATLSCTSSQSVYHANWLSWFQQKPGQPPKLLIYWASTLAYGVPSRFSGSGSGTDFTLTISSLQPEDAATYYCAGGYGGGRYAFGQGTKVEIKRTVAAPSVFIFPPSDEQLKSGTASVVCLLNNFYPREAKVQWKVDNALQSGNSQESVTEQDSKDSTYSLSSTLTLSKADYEKHKVYACEVTHQGLSSPVTKSFNRGEC
B3: M103205H795-MY318/M103202L889-SK1 (antibody, human IgG1, kappa)
heavy: QVTLKESGPVLVKPTETLTLTCTVSGIDLSHDDISWVRQAPGKGLEWVGIISYAGSTYYASWAKGRLTISKDTSKNQVVLTMTNMDPVDTATYYCARGVPAYSHGGDLWGQGTLVTVSSASTKGPSVFPLAPSSKSTSGGTAALGCLVKDYFPEPVTVSWNSGALTSGVHTFPAVLQSSGLYSLSSVVTVPSSSLGTQTYICNVNHKPSNTKVDKKVEPKSCDKTHTCPPCPAPELLLGPSVFLFPPKPKDTLMISRTPEVTCVVVDVSEEDPEVKFNWYVDGVEVHNAKTKPREEQYNSTYRVVSVLTVLHQDWLNGKEYKCKVSNTALPKPIEKTISKAKGQPREPQVYTLPPSREEMTKNQVSLTCLVKGFYPSDIAVEWESNGQPENNYKTTPMVLDSDGSFFLYSKLTVDKSRWQQGNVFSCSVMHEALHNHYTQKSLSLSP
light: DIVMTQSPATLSLSPGERATLSCTSSQSVYHANWLSWFQQKPGQPPKLLIYWASTLAYGVPSRFSGSGSGTDFTLTISSLQPEDAATYYCAGGYGGGRYAFGQGTKVEIKRTVAAPSVFIFPPSDEQLKSGTASVVCLLNNFYPREAKVQWKVDNALQSGNSQESVTEQDSKDSTYSLSSTLTLSKADYEKHKVYACEVTHQGLSSPVTKSFNRGEC
B4: M103205H795-MY311/M103202L889-SK1 (antibody, human IgG1, kappa)
heavy: QVTLKESGPVLVKPTETLTLTCTVSGIDLSHDDISWVRQAPGKGLEWVGIISYAGSTYYASWAKGRLTISKDTSKNQVVLTMTNMDPVDTATYYCARGVPAYSHGGDLWGQGTLVTVSSASTKGPSVFPLAPSSKSTSGGTAALGCLVKDYFPEPVTVSWNSGALTSGVHTFPAVLQSSGLYSLSSVVTVPSSSLGTQTYICNVNHKPSNTKVDKKVEPKSCDKTHTCPPCPAPELLTGPSVFLFPPKPKDTLMISRTPEVTCVVVDVSEEDPEVKFNWYVDGVEVHNAKTKPREELYNSTYRVVSVLTVLHQDWLNGKEYKCKVSNKALPKPIEKTISKAKGQPREPQVYTLPPSREEMTKNQVSLTCLVKGFYPSDIAVEWESNGQPENNYKTTPPVLDSDGSFFLYSKLTVDKSRWQQGNVFSCSVMHEALHNHYTQKSLSLSP
light: DIVMTQSPATLSLSPGERATLSCTSSQSVYHANWLSWFQQKPGQPPKLLIYWASTLAYGVPSRFSGSGSGTDFTLTISSLQPEDAATYYCAGGYGGGRYAFGQGTKVEIKRTVAAPSVFIFPPSDEQLKSGTASVVCLLNNFYPREAKVQWKVDNALQSGNSQESVTEQDSKDSTYSLSSTLTLSKADYEKHKVYACEVTHQGLSSPVTKSFNRGEC
B5: M103205H795-MY321/M103202L889-SK1 (antibody, human IgG1, kappa)
heavy: QVTLKESGPVLVKPTETLTLTCTVSGIDLSHDDISWVRQAPGKGLEWVGIISYAGSTYYASWAKGRLTISKDTSKNQVVLTMTNMDPVDTATYYCARGVPAYSHGGDLWGQGTLVTVSSASTKGPSVFPLAPSSKSTSGGTAALGCLVKDYFPEPVTVSWNSGALTSGVHTFPAVLQSSGLYSLSSVVTVPSSSLGTQTYICNVNHKPSNTKVDKKVEPKSCDKTHTCPPCPAPELLHGPSVFLFPPKPKDTLMISRTPEVTCVVVDVSDEDPEVKFNWYVDGVEVHNAKTKPREEQYNSTYRVVSVLTVLHQDWLNGKEYKCKVSNKALPKPIEKTISKAKGQPREPQVYTLPPSREEMTKNQVSLTCLVKGFYPSDIAVEWESNGQPENNYKTTPMVLDSDGSFFLYSKLTVDKSRWQQGNVFSCSVMHEALHNHYTQKSLSLSP
light: DIVMTQSPATLSLSPGERATLSCTSSQSVYHANWLSWFQQKPGQPPKLLIYWASTLAYGVPSRFSGSGSGTDFTLTISSLQPEDAATYYCAGGYGGGRYAFGQGTKVEIKRTVAAPSVFIFPPSDEQLKSGTASVVCLLNNFYPREAKVQWKVDNALQSGNSQESVTEQDSKDSTYSLSSTLTLSKADYEKHKVYACEVTHQGLSSPVTKSFNRGEC
B6: M103205H795-MY312/M103202L889-SK1 (antibody, human IgG1, kappa)
heavy: QVTLKESGPVLVKPTETLTLTCTVSGIDLSHDDISWVRQAPGKGLEWVGIISYAGSTYYASWAKGRLTISKDTSKNQVVLTMTNMDPVDTATYYCARGVPAYSHGGDLWGQGTLVTVSSASTKGPSVFPLAPSSKSTSGGTAALGCLVKDYFPEPVTVSWNSGALTSGVHTFPAVLQSSGLYSLSSVVTVPSSSLGTQTYICNVNHKPSNTKVDKKVEPKSCDKTHTCPPCPAPELLTGPSVFLFPPKPKDTLMISRTPEVTCVVVDVSEEDPEVKFNWYVDGVEVHNAKTKPREEQYNSTYRVVSVLTVLHQDWLNGKEYKCKVSNTALPKPIEKTISKAKGQPREPQVYTLPPSREEMTKNQVSLTCLVKGFYPSDIAVEWESNGQPENNYKTTPMVLDSDGSFFLYSKLTVDKSRWQQGNVFSCSVMHEALHNHYTQKSLSLSP
light: DIVMTQSPATLSLSPGERATLSCTSSQSVYHANWLSWFQQKPGQPPKLLIYWASTLAYGVPSRFSGSGSGTDFTLTISSLQPEDAATYYCAGGYGGGRYAFGQGTKVEIKRTVAAPSVFIFPPSDEQLKSGTASVVCLLNNFYPREAKVQWKVDNALQSGNSQESVTEQDSKDSTYSLSSTLTLSKADYEKHKVYACEVTHQGLSSPVTKSFNRGEC
B7: M103205H795-MY309/M103202L889-SK1 (antibody, human IgG1, kappa)
heavy: QVTLKESGPVLVKPTETLTLTCTVSGIDLSHDDISWVRQAPGKGLEWVGIISYAGSTYYASWAKGRLTISKDTSKNQVVLTMTNMDPVDTATYYCARGVPAYSHGGDLWGQGTLVTVSSASTKGPSVFPLAPSSKSTSGGTAALGCLVKDYFPEPVTVSWNSGALTSGVHTFPAVLQSSGLYSLSSVVTVPSSSLGTQTYICNVNHKPSNTKVDKKVEPKSCDKTHTCPPCPAPELLTGPSVFLFPPKPKDTLMISRTPEVTCVVVDVSEEDPEVKFNWYVDGVEVHNAKTKPREEQYNSTYRVVSVLTVLHQDWLNGKEYKCKVSNKALPKPIEKTISKAKGQPREPQVYTLPPSREEMTKNQVSLTCLVKGFYPSDIAVEWESNGQPENNYKTTPMVLDSDGSFFLYSKLTVDKSRWQQGNVFSCSVMHEALHNHYTQKSLSLSP
light: DIVMTQSPATLSLSPGERATLSCTSSQSVYHANWLSWFQQKPGQPPKLLIYWASTLAYGVPSRFSGSGSGTDFTLTISSLQPEDAATYYCAGGYGGGRYAFGQGTKVEIKRTVAAPSVFIFPPSDEQLKSGTASVVCLLNNFYPREAKVQWKVDNALQSGNSQESVTEQDSKDSTYSLSSTLTLSKADYEKHKVYACEVTHQGLSSPVTKSFNRGEC

In general, Kd refers to the concentration at which binding is half-saturated. Lower therefore signals a tighter complex.

T1 sequence (P08637 17-208 F176V): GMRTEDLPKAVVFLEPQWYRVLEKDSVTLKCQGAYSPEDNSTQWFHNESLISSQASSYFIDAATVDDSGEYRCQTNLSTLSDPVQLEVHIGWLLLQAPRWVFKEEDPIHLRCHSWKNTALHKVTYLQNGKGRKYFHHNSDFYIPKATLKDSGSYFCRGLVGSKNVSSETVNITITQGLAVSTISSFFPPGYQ

This experiment concerns the target T1, human FcγRIIIaV extracellular domain, C-terminal His-tag (human, UniProt P08637 17-208).
T1 construct: also called FcgRIIIaV; not shown: His-tag added to C-terminus
Kind of experiment: SPR (Biacore), antibody captured, FcgR analyte, 25 C.
Molecule B1 gave a Kd of 8.3 µM.
To B2 belongs 6.9 µM.
Regarding B3, binding was put at a Kd of 8.7 µM. This Kd and that of the molecule before are within 1.5-fold of each other.
To B4 belongs 7.1 µM; to B5, 3.4 µM.
As for B6, the figure is 2.8 µM; as for B7, 4.3 µM.
